Values quoted from earlier work as cited in article PMC9437947.

Molecular target: Lys166 (UniProt position 166, RAVKTKIGYPA)
Assay: kinetics
Conditions: H297N mutant turning over S-mandelate in the exchange reaction

## Mandelate racemase H297N mutant (Pseudomonas putida (inferred; organism not stated in the article); H297N)
  pKa: ~ 6
